According to publication PMC8067709, “Crystal Structure of the Epo1-Bem3 Complex for Bud Growth” (International Journal of Molecular Sciences, 2021):

T1: Bem3^CC1 (1-99) with 6xHis tag, isolated protein (Saccharomyces cerevisiae, UniProt P32873 1-99)
T1 chain: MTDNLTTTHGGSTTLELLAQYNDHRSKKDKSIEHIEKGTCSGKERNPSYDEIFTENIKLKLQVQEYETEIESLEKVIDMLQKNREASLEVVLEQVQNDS

T2: Epo1^CC2-CC4 (746-943) with 6xHis tag, isolated protein
T2 chain: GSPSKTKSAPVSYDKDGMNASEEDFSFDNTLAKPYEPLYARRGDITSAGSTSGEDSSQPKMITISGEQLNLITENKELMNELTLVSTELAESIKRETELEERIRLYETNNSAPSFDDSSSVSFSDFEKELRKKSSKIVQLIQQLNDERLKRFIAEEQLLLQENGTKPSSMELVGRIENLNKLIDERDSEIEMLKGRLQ


Legend:
[1] = target: Scs2-Msp (1-128), N-His (Saccharomyces cerevisiae) (UniProt P40075); assay: MST; Monolith NT.115; RED-tris-NTA labeled N-His Scs2-Msp (100 nM) with a serial dilution of Epo1, Bem3 or EB complex from 2 mM; 20 mM Tris-HCl pH 8.0, 150 mM NaCl, 4 mM MgCl2, 0.05% Tween 20
Chain of Scs2-Msp (1-128), N-His (Saccharomyces cerevisiae) (P40075 1-128): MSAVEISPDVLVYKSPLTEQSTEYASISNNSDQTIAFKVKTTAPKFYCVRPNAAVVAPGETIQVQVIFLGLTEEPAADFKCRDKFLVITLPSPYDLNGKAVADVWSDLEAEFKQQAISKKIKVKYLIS

[2] = target: T1, Bem3^CC1 (1-99) with 6xHis tag, …; assay: SPR
[3] = target: Epo1^CC2-CC4 (746-943) with 6xHis tag, isolated protein (Saccharomyces cerevisiae); assay: SEC-MALS; Superdex 200 10/300 with DAWN HELEOS II; 100 uL of 2-4 mg/mL protein; 20 mM Tris pH 8.0, 150 mM NaCl, 4 mM MgCl2
[4] = target: T2, Epo1^CC2-CC4 (746-943) with 6xHis tag, …; assay: SPR; details: chain shown with the change;; parent: 72.65
[5] = target: the molecule itself; assay: SEC-MALS; Superdex 200 10/300 with DAWN HELEOS II; 100 uL of 2-4 mg/mL protein; 20 mM Tris pH 8.0, 150 mM NaCl, 4 mM MgCl2

Molecule | Kd [1] | Kd [2] | other results
Epo1^CC2-CC4-Bem3^CC1 complex (from UniProt P32873 1-99) | 120 µM | – | –
Epo1^CC2-CC4 (746-943) with 6xHis tag, isolated protein (domain or fragment) GSPSKTKSAPVSYDKDGMNASEEDFSFDNTLAKPYEPLYARRGDITSAGSTSGEDSSQPKMITISGEQLNLITENKELMNELTLVSTELAESIKRETELEERIRLYETNNSAPSFDDSSSVSFSDFEKELRKKSSKIVQLIQQLNDERLKRFIAEEQLLLQENGTKPSSMELVGRIENLNKLIDERDSEIEMLKGRLQ | 170 µM | 72.7 µM | stoichiometry N [3]: 2
Epo1CC2-CC4-Q888A (protein, Entity 1 of 6LP3 is Epo1 (YMR124W) 746-943, so entity position = residue number - 745 (Q888 = 143, K881 = 136, R876 = 131). Q888A is taken from the figure label; the text says Q884A and the legend Q88A. Epo1 CC2-CC4 alone is a homodimer in solution; one chain is given.) GSPSKTKSAPVSYDKDGMNASEEDFSFDNTLAKPYEPLYARRGDITSAGSTSGEDSSQPKMITISGEQLNLITENKELMNELTLVSTELAESIKRETELEERIRLYETNNSAPSFDDSSSVSFSDFEKELRKKSSKIVQLIQALNDERLKRFIAEEQLLLQENGTKPSSMELVGRIENLNKLIDERDSEIEMLKGRLQ | – | 115 µM | –
Epo1-CC-K881A (domain or fragment) GSPSKTKSAPVSYDKDGMNASEEDFSFDNTLAKPYEPLYARRGDITSAGSTSGEDSSQPKMITISGEQLNLITENKELMNELTLVSTELAESIKRETELEERIRLYETNNSAPSFDDSSSVSFSDFEKELRKKSSAIVQLIQQLNDERLKRFIAEEQLLLQENGTKPSSMELVGRIENLNKLIDERDSEIEMLKGRLQ | – | 375 µM | –
Bem3^CC1 (1-99) with 6xHis tag, isolated protein, P32873 R84A (protein) MTDNLTTTHGGSTTLELLAQYNDHRSKKDKSIEHIEKGTCSGKERNPSYDEIFTENIKLKLQVQEYETEIESLEKVIDMLQKNAEASLEVVLEQVQNDS | – | – | Kd [4]: 137 µM
Bem3^CC1 (1-99) with 6xHis tag, isolated protein (domain or fragment, Saccharomyces cerevisiae, UniProt P32873 1-99, looked up, Bem3, Saccharomyces cerevisiae, residues 1-99 (CC1 domain); Dimer in solution by MALS; theoretical molecular mass printed as 11.39 kDa; also called N-His-unlabeled Bem3^CC1; wild-type (wt) Bem3^CC1; source: pET-22b construct, purified (Hitrap Q ion-exchange); not shown: 6xHis, N-terminal, kept) MTDNLTTTHGGSTTLELLAQYNDHRSKKDKSIEHIEKGTCSGKERNPSYDEIFTENIKLKLQVQEYETEIESLEKVIDMLQKNREASLEVVLEQVQNDS | – | – | stoichiometry N [5]: 2
